According to patent US11819540B2, “Methods for treating and preventing neutrophil-derived net toxicity and thrombosis” (CHILDREN'S MEDICAL CENTER CORPORATION, priority 2011, dated 2023):
“Also recorded” adds a separate entry of the source.

System: blood clots (fibrin and NET scaffold)
Assay: Clot formation in recalcified blood with or without PAF-activated neutrophils (thrombolysis)
Type: cell-based, human
Settings: tPA 25 μg/mL
Experimental: Fibrin polymerization was induced in blood by recalcification and incubated either in the absence (medium) or presence of neutrophils preactivated by PAF to induce NET formation (neutrophils+PAF). Samples were treated with DNase to digest extracellular traps or tPA for fibrin digestion. […] (Scale bar, 1 cm.) The graph presents quantification of the clots by weighing. […] Data are presented as mean±SEM, n=4; (ANOVA; ***P<0.001). The first bar in each x-axis category represents the untreated samples, the second bar represents the samples treated with DNase, the third bar represents the samples treated with tPA, and the fourth bar represents the samples treated with tPA and DNase.
The relative susceptibility of NETs and fibrin to serve as scaffolds for blood clots to thrombolysis was examined (FIG. 20). Neutrophils were prestimulated with platelet-activating factor to release NETs with recalcified blood under stirring conditions. Two-hundred-fifty microliters of 5×10^6 neutrophils per milliliter in RPMI medium were activated by platelet activating factor (50 μM Calbiochem) at 37° C. under static conditions to induce NET formation. Control samples were 250 μL medium alone, 250 μL of unstimulated neutrophils, or 250 μL of 50 μM PAF in medium. After 10 min, 250 μL of recalcified (40 mM CaCl2) ACD anticoagulated blood was added. The mixture was incubated under stirring conditions (1,000 rpm) at 37° C. using an Eppendorf Thermomixer. Indicated samples were supplemented with tPA (25 μg/mL, Baxter) or DNase 1 (100 U/mL, Worthington Biochem). After 20 min, the blood was passed through a 100-μm cell strainer to isolate the clot. Images were acquired and the clot was determined. Thereafter, 10-μm frozen sections of the clot were prepared and stained for fibrinogen (mouse-antihuman-fibrinogen, Sigma) and VWF (rabbit-antihuman-VWF, Chemicon). Isotype control antibodies were used to determine background staining and DNA was labeled fluorescently by Hoechst 33258 (Invitrogen).

B1: tPA: tissue plasminogen activator (25 μg/mL, Baxter) for fibrin digestion (protein, UniProt P00750 36-562, looked up)
Tissue-type plasminogen …: SYQVICRDEKTQMIYQQHQSWLRPVLRSNRVEYCWCNSGRAQCHSVPVKSCSEPRCFNGGTCQQALYFSDFVCQCPEGFAGKCCEIDTRATCYEDQGISYRGTWSTAESGAECTNWNSSALAQKPYSGRRPDAIRLGLGNHNYCRNPDRDSKPWCYVFKAGKYSSEFCSTPACSEGNSDCYFGNGSAYRGTHSLTESGASCLPWNSMILIGKVYTAQNPSAQALGLGKHNYCRNPDGDAKPWCHVLKNRRLTWEYCDVPSCSTCGLRQYSQPQFRIKGGLFADIASHPWQAAIFAKHRRSPGERFLCGGILISSCWILSAAHCFQERFPPHHLTVILGRTYRVVPGEEEQKFEVEKYIVHKEFDDDTYDNDIALLQLKSDSSRCAQESSVVRTVCLPPADLQLPDWTECELSGYGKHEALSPFYSERLKEAHVRLYPSSRCTSQHLLNRTVTDNMLCAGDTRSGGPQANLHDACQGDSGGPLVCLNDGRMTLVGIISWGLGCGQKDVPGVYTKVTNYLDWIRDNMRP
For B1, the clot formation (absence of activated neutrophils (medium), DNase 100 U/mL) was “prevented clot formation”, the fibrin in clot (presence of PAF-activated neutrophils) was “removed fibrin” and the “clot formation / clot size” value (presence of PAF-activated neutrophils, DNase 100 U/mL) was “did not prevent clot formation; also recorded: reduced clot size”.
